Tests used:
Conditions in all cases: glycan lost; control: wild type
[1] = whole-cell patch clamp in CHO
[2] = cell surface biotinylation, western blot
[3] = automated whole-cell patch clamp, inactivation width at +80 mV

| Protein | other: channel current [1] | localisation_or_trafficking [2] | other: channel inactivation delay and its heterogeneity [3] |
| --- | --- | --- | --- |
| rat Kv3.4 (rKv3.4): N257Q (protein) parent chain: MISSVCVSSYRGRKSGNKPPSKTCLKEEMAKGEASEKIIINVGGTRHETYRSTLRTLPGTRLAWLADPDGGGRPESDGGGAGSSGSSGGGGGCEFFFDRHPGVFAYVLNYYRTGKLHCPADVCGPLFEEELTFWGIDETDVEPCCWMTYRQHRDAEEALDIFESPDGGGGGAGPGDEAGDDERELALQRLGPHEGGSGPGAGSGGCRGWQPRMWALFEDPYSSRAARVVAFASLFFILVSITTFCLETHEAFNIDRNVTEIHRVGNITSVRFRREVETEPILTYIEGVCVMWFTLEFLVRIVCCPDTLDFVKNLLNIIDFVAILPFYLEVGLSGLSSKAARDVLGFLRVVRFVRILRIFKLTRHFVGLRVLGHTLRASTNEFLLLIIFLALGVLIFATMIYYAERIGARPSDPRGNDHTDFKNIPIGFWWAVVTMTTLGYGDMYPKTWSGMLVGALCALAGVLTIAMPVPVIVNNFGMYYSLAMAKQKLPKKRKKHVPRPPQLESPIYCKSEETSPRDSTYSDTSPPAREEGMVERKRADSKQNGDANAVLSDEEGAGLTQPLASAPTPEERRALRRSGTRDRNKKAAACFLLSAGDYACADGSVQKEGSVEPKACVPVSHTCAL | decreases | no change | decreases |
| rat Kv3.4 (rKv3.4): N266Q (protein) parent chain: MISSVCVSSYRGRKSGNKPPSKTCLKEEMAKGEASEKIIINVGGTRHETYRSTLRTLPGTRLAWLADPDGGGRPESDGGGAGSSGSSGGGGGCEFFFDRHPGVFAYVLNYYRTGKLHCPADVCGPLFEEELTFWGIDETDVEPCCWMTYRQHRDAEEALDIFESPDGGGGGAGPGDEAGDDERELALQRLGPHEGGSGPGAGSGGCRGWQPRMWALFEDPYSSRAARVVAFASLFFILVSITTFCLETHEAFNIDRNVTEIHRVGNITSVRFRREVETEPILTYIEGVCVMWFTLEFLVRIVCCPDTLDFVKNLLNIIDFVAILPFYLEVGLSGLSSKAARDVLGFLRVVRFVRILRIFKLTRHFVGLRVLGHTLRASTNEFLLLIIFLALGVLIFATMIYYAERIGARPSDPRGNDHTDFKNIPIGFWWAVVTMTTLGYGDMYPKTWSGMLVGALCALAGVLTIAMPVPVIVNNFGMYYSLAMAKQKLPKKRKKHVPRPPQLESPIYCKSEETSPRDSTYSDTSPPAREEGMVERKRADSKQNGDANAVLSDEEGAGLTQPLASAPTPEERRALRRSGTRDRNKKAAACFLLSAGDYACADGSVQKEGSVEPKACVPVSHTCAL | decreases | no change | decreases |
